# Results published in article PMC9990171 (2023).
# B1: 7D1 bivalent human heavy-chain-only antibody (HCAb) (antibody, V domains shown)
# VH: EVQLVETGGGLIQPGGSLRLSCAASGFQVSSSYMSWVRQAPGKGLEWVSVIYSGGGTYYADSVKGRFTISRDISKNTLYLQMNNLRAEDTAMYYCARGWTGVTATTGPWGQGTLVTVSS
# B2: 10D12 bivalent human heavy-chain-only antibody (HCAb) (antibody, V domains shown)
# VH: EVQLVETGGGLIQPGGSLRLSCAVSGFTVSLNYMSWVRQAPGKGLEWVSSIYSGGSTFYADSVKGRFTISRDNSKNTLYLQMNSLRAEDTAVYYCARGLGFGELPPFDFWGQGTLVTVSS
# B3: 14D2 bivalent human heavy-chain-only antibody (HCAb) (antibody, V domains shown)
# VH: EVQLVETGGGLIQPGGSLRLSCAASGFQVSNVYMSWVRQAPGKGQEWVSVLYSGGNTYYADSVKGRFTISRDNSKNMVYLQMNSLRVEDTAVYYCARGWEGVTGTTGPWGQGTLVTVSS
# B4: 11C12 bivalent human heavy-chain-only antibody (HCAb) (antibody, V domains shown)
# VH: EVQLVESGGGLVQPGGSLRLSCAASGFTFSSSWMYWVRHIPGKGLEWVSRTTSDVASTFYADSVKGRFTVSRDNAKNMLYLQMNSLRAEDTAVYYCTRDFHDLWSGYYNHWGQGTLVTVSS
# B5: 10H7 bivalent human heavy-chain-only antibody (HCAb) (antibody, V domains shown)
# VH: EVQLVESGGGLIQPGGSLRLSCAASGFTVSNNYMAWVRQAPGKGLEWISVIYANGNTYYADSVKGRFTISRDNSKNVLFLQMSGLRAEDTAVYYCSSRYGSGSEELYDIWGQGTMVTVSS
# What was measured:
# [1] = molecular target: SARS-CoV-2 S receptor binding domain (RBD) (SARS-CoV-2 (Wuhan-Hu-1), UniProt P0DTC2 329-538); test: ELISA
# [2] = molecular target: SARS-CoV-2 S N-terminal domain (NTD) (SARS-CoV-2 (Wuhan-Hu-1), UniProt P0DTC2 14-294); test: ELISA
Binder,EC50 [1] [ng/mL],EC50 [2] [ng/mL]
B1,4.11,–
B2,3.22,–
B3,3.48,–
B4,–,181
B5,3.09,–
